T1: integrin αvβ3 on β3-CHO cells (recombinant hamster αv/human β3 hybrid), P05106
T1 chain: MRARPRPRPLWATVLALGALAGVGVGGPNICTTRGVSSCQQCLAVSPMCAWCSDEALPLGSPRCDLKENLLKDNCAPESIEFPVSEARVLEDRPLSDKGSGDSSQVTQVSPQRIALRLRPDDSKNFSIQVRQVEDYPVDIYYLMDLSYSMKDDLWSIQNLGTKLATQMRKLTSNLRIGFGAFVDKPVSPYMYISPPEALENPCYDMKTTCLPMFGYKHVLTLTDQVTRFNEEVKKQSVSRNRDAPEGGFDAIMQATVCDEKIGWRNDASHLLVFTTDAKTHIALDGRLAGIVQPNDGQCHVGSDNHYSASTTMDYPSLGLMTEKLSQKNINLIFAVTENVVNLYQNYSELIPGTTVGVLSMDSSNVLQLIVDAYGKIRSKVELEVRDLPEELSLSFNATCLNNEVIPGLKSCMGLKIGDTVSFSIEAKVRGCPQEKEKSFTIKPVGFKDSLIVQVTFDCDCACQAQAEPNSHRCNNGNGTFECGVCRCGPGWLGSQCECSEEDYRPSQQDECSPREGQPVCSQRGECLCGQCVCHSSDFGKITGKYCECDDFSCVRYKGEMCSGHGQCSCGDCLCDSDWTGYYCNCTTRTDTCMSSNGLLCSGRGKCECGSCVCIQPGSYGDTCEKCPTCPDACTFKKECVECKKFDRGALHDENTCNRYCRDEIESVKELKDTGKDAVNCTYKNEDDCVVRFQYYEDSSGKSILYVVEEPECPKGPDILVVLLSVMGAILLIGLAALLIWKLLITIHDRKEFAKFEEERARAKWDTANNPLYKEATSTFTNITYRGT


Biological target: T1, integrin αvβ3 on β3-CHO cells …
Test: cell adhesion assay (β3-CHO cells on coated IGF2)
Conditions: chain shown with the change, Tyrode-HEPES buffer, 1 mM Mg2+, read off a plot
[1] = IGF2 coating 5 µg/ml, parent: est. 30
[2] = IGF2 coating 10 µg/ml, parent: est. 43
[3] = IGF2 coating 20 µg/ml, parent: est. 56

response (10 µg/ml IGF2, parent: est. 43) [% Adhesion] | response [1] [% Adhesion] | response [2] [% Adhesion] | response [3] [% Adhesion] | Binder
15 | – | – | – | WT IGF2 (insulin-like growth factor-2) R24E; R34E; R37E; R38E (protein) AYRPSETLCGGELVDTLQFVCGDEGFYFSRPASEVSEESRGIVEECCFRSCDLALLETYCATPAKSE
16 | 9.5 | 16 | 17 | WT IGF2 (insulin-like growth factor-2) R24E; R37E; R38E (protein) AYRPSETLCGGELVDTLQFVCGDEGFYFSRPASRVSEESRGIVEECCFRSCDLALLETYCATPAKSE
15 | 6.5 | 16 | 15 | WT IGF2 (insulin-like growth factor-2) R34E; R37E; R38E (protein) AYRPSETLCGGELVDTLQFVCGDRGFYFSRPASEVSEESRGIVEECCFRSCDLALLETYCATPAKSE
25 | 20 | 25 | 36 | WT IGF2 (insulin-like growth factor-2) R30E; R37E; R38E (protein) AYRPSETLCGGELVDTLQFVCGDRGFYFSEPASRVSEESRGIVEECCFRSCDLALLETYCATPAKSE

From paper PMC5584928
